Laboratory results as given in patent US20230365647A1 (published 2023).

Biological target: T1, Mannose receptor C type 1 on human monocyte-derived dendritic cells (Homo sapiens, UniProt P22897 19-1456)
T1 construct: also called MRC-1
T1 sequence: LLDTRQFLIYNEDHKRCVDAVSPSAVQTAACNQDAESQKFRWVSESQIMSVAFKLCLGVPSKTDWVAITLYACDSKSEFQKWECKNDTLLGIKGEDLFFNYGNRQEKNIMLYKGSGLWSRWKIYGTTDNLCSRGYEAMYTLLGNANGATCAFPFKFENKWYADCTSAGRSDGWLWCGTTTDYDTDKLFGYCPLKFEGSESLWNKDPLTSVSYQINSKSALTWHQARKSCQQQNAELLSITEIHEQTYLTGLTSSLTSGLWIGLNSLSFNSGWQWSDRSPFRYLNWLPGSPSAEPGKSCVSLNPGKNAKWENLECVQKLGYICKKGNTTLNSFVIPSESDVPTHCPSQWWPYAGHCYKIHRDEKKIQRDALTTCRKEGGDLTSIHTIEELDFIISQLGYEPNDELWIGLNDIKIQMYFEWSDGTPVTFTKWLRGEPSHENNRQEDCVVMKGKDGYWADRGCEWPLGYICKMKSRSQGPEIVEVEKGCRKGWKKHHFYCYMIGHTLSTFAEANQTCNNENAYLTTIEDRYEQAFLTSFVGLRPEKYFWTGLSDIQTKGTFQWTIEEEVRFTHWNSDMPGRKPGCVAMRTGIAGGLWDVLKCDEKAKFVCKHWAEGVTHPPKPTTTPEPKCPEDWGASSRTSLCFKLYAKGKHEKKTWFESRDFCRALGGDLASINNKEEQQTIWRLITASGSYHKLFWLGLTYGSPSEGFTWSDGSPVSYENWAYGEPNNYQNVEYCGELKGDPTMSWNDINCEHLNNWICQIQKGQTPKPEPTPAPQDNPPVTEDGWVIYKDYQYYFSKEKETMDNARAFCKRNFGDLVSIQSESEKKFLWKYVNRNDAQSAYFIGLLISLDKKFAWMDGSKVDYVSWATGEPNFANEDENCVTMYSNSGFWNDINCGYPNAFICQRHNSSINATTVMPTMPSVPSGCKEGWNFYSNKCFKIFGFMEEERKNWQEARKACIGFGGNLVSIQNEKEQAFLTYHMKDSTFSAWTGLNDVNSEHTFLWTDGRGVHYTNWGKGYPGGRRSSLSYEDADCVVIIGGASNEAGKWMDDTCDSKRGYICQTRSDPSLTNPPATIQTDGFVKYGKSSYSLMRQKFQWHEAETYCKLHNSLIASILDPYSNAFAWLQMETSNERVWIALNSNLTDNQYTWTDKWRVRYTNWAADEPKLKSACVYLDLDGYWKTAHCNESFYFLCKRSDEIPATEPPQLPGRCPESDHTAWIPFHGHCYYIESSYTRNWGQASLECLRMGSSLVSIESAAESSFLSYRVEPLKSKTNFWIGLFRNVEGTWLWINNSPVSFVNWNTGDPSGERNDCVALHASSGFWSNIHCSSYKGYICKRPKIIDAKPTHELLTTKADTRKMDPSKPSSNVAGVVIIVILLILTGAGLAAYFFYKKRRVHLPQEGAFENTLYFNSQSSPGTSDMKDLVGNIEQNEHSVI
Test: immunofluorescence co-localization in human DCs

B1: Pneumolysin (purified recombinant) (other)
chain: ANKAVNDFILAMNYDKKKLLTHQGESIENRFIKEGNQLPDEFVVIERKKRSLSTNTSDISVTATNDSRLYPGALLVVDETLLENNPTLLAVDRAPMTYSIDLPGLASSDSFLQVEDPSNSSVRGAVNDLLAKWHQDYGQVNNVPARMQYEKITAHSMEQLKVKFGSDFEKTGNSLDIDFNSVHSGEKQIQIVNFKQIYYTVSVDAVKNPGDVFQDTVTVEDLKQRGISAERPLVYISSVAYGRQVYLKLETTSKSDEVEAAFEALIKGVKVAPQTEWKQILDNTEVKAVILGGDPSSGARVVTGKVDMVEDLIQEGSRFTADHPGLPISYTTSFLRDNVVATFQNSTDYVETKVTAYRNGDLLLDHSGAYVAQYYITWNELSYDHQGKEVLTPKAWDRNGQDLTAHFTTSIPLKGNVRNLSVKIRECTGLAWEWWRTVYEKTDLPLVRKRTISIWGTTLYPQVEDKVEND
notes: also called PLY; Ply
binding result: binds

B2: LLO (W489F) toxoid (other)
chain: KDASAFNKENSISSMAPPASPPASPKTPIEKKHADEIDKYIQGLDYNKNNVLVYHGDAVTNVPPRKGYKDGNEYIVVEKKKKSINQNNADIQVVNAISSLTYPGALVKANSELVENQPDVLPVKRDSLTLSIDLPGMTNQDNKIVVKNATKSNVNNAVNTLVERWNEKYAQAYPNVSAKIDYDDEMAYSESQLIAKFGTAFKAVNNSLNVNFGAISEGKMQEEVISFKQIYYNVNVNEPTRPSRFFGKAVTKEQLQALGVNAENPPAYISSVAYGRQVYLKLSTNSHSTKVKAAFDAAVSGKSVSGDVELTNIIKNSSFKAVIYGGSAKDEVQIIDGNLGDLRDILKKGATFNRETPGVPIAYTTNFLKDNELAVIKNNSEYIETTSKAYTDGKINIDHSGGYVAQFNISWDEINYDPEGNEIVQHKNWSENNKSKLAHFTSSIYLPGNARNINVYAKECTGLAFEWWRTVIDDRNLPLVKNRNISIWGTTLYPKYSNSVDNPIE
binding result: no binding (tested: 0.2 µg/ml)
